B1: EsaDEG complex (complex)
chain 1: MTKDIEYLTADYDNEKSSIQSVIDAIEGQDFLDVDTTMDDAVSDVSSLDEDGAISLTSSVVGPQGSKLMGYYQNELYDYASQLDSKMKEIIDTPFIEDIDKAFKGITNVKLENILIKNGGGHGRDTYGASGKIAKGDAKKSDSDVYSIDEILKSDQEFVKVIDQHYKEMKKEDKKLSKSDFEKMMTQGASCDYMTVAEAEELEEQKKKEEAIEIAALAGMVVLSCINPVAGAVAIGAYSAYSAANAATGKNIVTGRKLSKEERIMEGLSLIPLPGMGFLKGAGKSLMKLGFKGGEKFAVKTGLQKTMQQAVSRISPKMGMMKNSVLNQSRNFAQNTHVGQMLSNMRGQATHTVQQSRNWIGQQAQNVKRIVNNGLDKEIAHPFKQQLAPAGMGGIKFAETTTLRNMGQNIKRAVTPQNHVTHGPKDSMVRSEGKHSISSHEMNSSKYVESPNYTKVEFGEHYARLRPKKLKANIEYTTPTGHIYRTDHKGRIKEVYVDNLSLKDGDRNSHAQRTVGGEDRLPDDDGGALIARMFGGSKDIDNLVAQSKFINRPFKEKGHWYNLEKEWQEFLNSGKEVKNIKMEVKYSGNSQRPTIFKVEYEINGERNIRRILNK
chain 2: MKDVKRIDYFSYEELTILGGSKLPLVNFELFDPSNFEEAKAALIEKELVTENDKLTDAGFKVATLVREYISAIVNIRINDMYFAPFSYEKDEYILLSRFKNNGFQIRIINKDIAWWSIVQSYPLLMRQEKSNDWDFKQIDDETLENLNNESIDTIGRVLEIEIYNHQGDPQQSLYNIYEQNDLLFIRYPLKDKVLNVHIGVINTFIRELFGFDTDENHINKAEE
chain 3: MTFEEKLSKIYNEIANEISSMIPVEWEKVYTMAYIDDGGGEVFFNYTKPGSDDLNYYTNIPKEYNISVQVFDDLWMDLYDLFEELRDLFKEEDLEPWTSCEFDFTREGELKVSFDYIDWINSEFGQIGRQNYYKYRKFGILPETEYEINKVKEIEQYIKELEE
notes: EsaD nuclease toxin of S. aureus, as m1; EsaE of S. aureus, as m2; EsaG of S. aureus, as m3; Cross-linked with glutaraldehyde for the experiment on dimers-of-trimers and for cryo-EM; also called EsaDEG trimer; not shown: His6, C-terminal, kept; copies: + +
B2: EsaDEG-EsxBCD complex (complex)
chain 1: B1 chain 1
chain 2: B1 chain 2
chain 3: B1 chain 3
chain 4: MGGYKGIKADGGKVDQAKQLAAKTAKDIEACQKQTQQLAEYIEGSDWEGQFANKVKDVLLIMAKFQEELVQPMADHQKAIDNLSQNLAKYDTLSIKQGLDRVNP
chain 5: MNFNDIETMVKSKFKDIKKHAEEIAHEIEVRSGYLRKAEQYKRLEFNLSFALDDIESTAKDVQTAKSSANKDSVTVKGKAPNTLYIEKRNLMKQKLEMLGEDIDKNKESLQKAKEIAGEKASEYFNKAMN
chain 6: MTLSGKISVKAETIAHVVKELESISQKYDEIAQNFGKIAQLNYYSSEKAAHSMENGYSSAATVISGLKGPLSTLGGGVMNSAQKFFEADEHWGTEFAKLYYNIEG
notes: EsaD nuclease toxin of S. aureus, as m1; EsaE of S. aureus, as m2; EsaG of S. aureus, as m3; EsxB of S. aureus, as m4; EsxC of S. aureus, as m5; EsxD of S. aureus, as m6; Cross-linked with glutaraldehyde for the experiment on dimers-of-hexamers and for cryo-EM; also called EsaDEG-EsxBCD hexamer; EsxBCD-EsaDEG complex; not shown: His6, C-terminal, kept; twin-strep, C-terminal, kept; copies: + + + …

Molecular target: the molecule itself
Experiment: cross-linking; purified complex from the major SEC peak at 0.5 mg/ml in 50 mM HEPES pH 7.5, 150 mM NaCl, 0.1% glutaraldehyde for 30 minutes at room temperature, quenched with tris; SEC and SDS-PAGE

Protein | stoichiometry N
B1 | 2
B2 | 2

— doi:10.1101/2023.04.01.535202, “Three small partner proteins facilitate the type VII-dependent secretion export of an antibacterial nuclease” (bioRxiv, 2023)
